Reference: US20220267379A1 (ECOLE POLYTECHNIQUE FEDERALE DE LAUSANNE EPFL, published 2022)
Values belong to the binder of their own block, whether it stands above or below them. Positions of bridges follow the written chain, without caps; N, C: chain ends. Non-standard residues stand in square brackets, D forms with d. Primed or numbered codes have the meaning given here. Chains are numbered I, II in the order given. No end group written: not given here. *: point of attachment. Palmitoyl = CCCCCCCCCCCCCCCC(=O)*; PEG2′ = PEG2 spacer unit

Tests used:
[1] = biological target: T1, mouse serum albumin (MSA) (mouse, UniProt P07724 25-608); assay: fluorescence polarization, dilution series of mouse albumin in PBS
T1 construct: also called mouse albumin

[2] = biological target: T2, human serum albumin (HSA) (human, UniProt P02768 25-609); assay: fluorescence polarization
[3] = biological target: T3, FXIIa (Factor XIIa) (human, UniProt P00748 373-615, limits assumed); assay: substrate-based activity assay, off-target selectivity
T3 sequence (looked up): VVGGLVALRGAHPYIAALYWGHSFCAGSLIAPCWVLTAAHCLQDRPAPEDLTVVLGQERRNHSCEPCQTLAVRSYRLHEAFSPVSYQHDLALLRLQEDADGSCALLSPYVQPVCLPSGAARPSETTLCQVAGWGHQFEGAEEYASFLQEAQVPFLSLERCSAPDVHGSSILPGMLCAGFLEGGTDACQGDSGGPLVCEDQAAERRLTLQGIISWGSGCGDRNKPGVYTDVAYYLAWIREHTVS

[4] = biological target: T2, human serum albumin (HSA); assay: fluorescence polarization, dilution series of human serum
Description: (b) Kd values of conjugates for HSA assessed by fluorescence polarization. A dilution serious of human serum was used. […] All data represent the mean of three measurements ±SD.
Thus, the dissociation constants (Kd) of the molecules for HSA were tested with a fluorescence polarization (FP) assay using the fluorescein moiety in the albumin tag. The fluorescence anisotropy of the molecules in a dilution series of human serum was measured and Kd values were calculated.

[5] = biological target: T4, human Kallikrein-related peptidase 5 (hKLK5) (human, UniProt Q9Y337 67-293, limits assumed); assay: substrate-based activity assay in the presence of 25 µM HSA
T4 construct: Active protease used in substrate-based activity assays and immobilized for phage selection; also called stratum corneum tryptic enzyme (SCTE)
Description: (§1) (a) Kᵢ values of N- and C-terminal tag conjugates in comparison to unconjugated inhibitors measured by inhibition assays in the presence of HSA. […] All data represent the mean of three measurements ±SD.
(§2) Even though the actual concentration of albumin in human blood is at around 600 μM and thus much higher, a higher albumin concentration in the assay was not possible, as it interfered with the protease activity.

[6] = biological target: T5, human Kallikrein-related peptidase 7 (hKLK7) (human, UniProt P49862 30-253); assay: as above
T5 construct: Active protease used in substrate-based activity assays and immobilized for phage selection; also called stratum corneum chymotryptic enzyme (SCCE)
Description: as §1, §2

[7] = biological target: T5, human Kallikrein-related peptidase 7 …; assay: substrate-based activity assay

T4 sequence (Q9Y337 67-293 limits assumed): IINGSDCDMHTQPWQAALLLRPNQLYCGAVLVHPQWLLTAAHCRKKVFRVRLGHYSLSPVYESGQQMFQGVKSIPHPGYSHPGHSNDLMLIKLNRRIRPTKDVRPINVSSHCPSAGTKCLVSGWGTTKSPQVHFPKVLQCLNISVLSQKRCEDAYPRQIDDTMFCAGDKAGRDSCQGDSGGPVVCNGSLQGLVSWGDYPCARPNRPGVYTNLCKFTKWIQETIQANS
T5 sequence (P49862 30-253 limits assumed): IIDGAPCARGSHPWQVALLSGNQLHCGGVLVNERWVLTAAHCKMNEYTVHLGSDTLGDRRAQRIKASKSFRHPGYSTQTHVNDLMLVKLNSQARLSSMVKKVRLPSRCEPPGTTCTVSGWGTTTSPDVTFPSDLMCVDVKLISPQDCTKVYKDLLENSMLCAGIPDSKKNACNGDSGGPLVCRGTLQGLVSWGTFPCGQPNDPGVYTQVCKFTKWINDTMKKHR
T1 sequence (P07724 25-608 limits assumed): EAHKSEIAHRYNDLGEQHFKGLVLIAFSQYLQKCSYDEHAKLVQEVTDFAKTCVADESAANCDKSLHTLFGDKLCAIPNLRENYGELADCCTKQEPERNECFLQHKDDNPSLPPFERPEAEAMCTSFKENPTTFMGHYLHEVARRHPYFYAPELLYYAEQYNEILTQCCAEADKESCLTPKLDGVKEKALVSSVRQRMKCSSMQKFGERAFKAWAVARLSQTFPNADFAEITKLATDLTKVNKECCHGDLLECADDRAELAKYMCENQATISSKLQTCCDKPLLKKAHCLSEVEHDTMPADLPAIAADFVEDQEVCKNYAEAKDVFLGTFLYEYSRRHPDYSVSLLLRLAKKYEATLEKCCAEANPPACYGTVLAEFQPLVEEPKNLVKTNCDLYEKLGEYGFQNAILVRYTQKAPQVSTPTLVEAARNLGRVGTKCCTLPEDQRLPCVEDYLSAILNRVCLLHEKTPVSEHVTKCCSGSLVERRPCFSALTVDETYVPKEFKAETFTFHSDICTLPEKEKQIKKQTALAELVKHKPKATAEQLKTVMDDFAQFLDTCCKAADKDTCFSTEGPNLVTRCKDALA

binding result [1]: binds
B1: SSSKSSS-tag (peptide)
peptide: SSSK(Palmitoyl)SSS
modifications: also: fluorescein label, position not given here
notes: Tag variant with all Tyr and Glu replaced by Ser; also called tag composed of Ser residues

factor recovered in HSA affinity compared to tag-F [2]: 2 fold
B2: albumin tag variant peptide 263 (peptide)
peptide: EYEKEYEK
modifications: pentanedioic acid appended to the N-terminus through a PEG2 unit; Lys 4 side chain acylated with palmitic acid; additional C-terminal Lys carries 5(6)-carboxyfluorescein on its side chain

fold weaker than the Ki value for KLK5 [3]: ~4300 fold
B3: peptide 035 (lead KLK5 inhibitor) (peptide)
peptide: GCTRQYPC
modifications: linker 2-8 via 1,3‑dibromoacetone
notes: also called compound 035

fold loss in affinity (Kd) for HSA on conjugation [4]: 2.1 fold
fold improvement in the Ki value compared to the cyclic peptide alone [5]: 1.8 fold
binding result [1]: binds
B4: KLK5 inhibitor 035-tag (C-terminal albumin tag conjugate of 035) (peptide)
peptide 1: GCTRQYPCGKG
peptide 2: EYEK(Palmitoyl)EYE
modifications: bridge I:2-I:8; not fully specified (some residues, N-terminus, bridges); also: chain 2 (albumin tag) attached via PEG2 to Lys10 side chain of chain 1 (branched)

factor of improvement in HSA affinity over peptide 266 [2]: 4 fold
B5: albumin tag variant peptide 284 (peptide)
peptide: EYEKEYEK
modifications: 2-naphthalenecarboxylic acid cap at the N-terminus (based on peptide 266: on a gamma-coupled glutamic acid, through PEG2); Lys 4 side chain acylated with palmitic acid; additional C-terminal Lys carries 5(6)-carboxyfluorescein on its side chain
notes: also called tag variant 284

binding result [4]: binds
Ki [6]: 106 nM
fold loss in activity compared to the cyclic peptide alone [6]: 6.6 fold
B6: N-terminal albumin tag conjugate of KLK7 inhibitor 096 (peptide)
peptide 1: {5(6)‑carboxyfluorescein}-EYEK(Palmitoyl)EYE[PEG2′]
peptide 2: PCLYLARCS
modifications: linker II:2-II:8 via 1,3‑dibromoacetone; also: tag C-terminus joined through PEG2 to inhibitor N-terminus (one linear molecule)
notes: also called N-terminal conjugate (KLK7)

factor of improvement in HSA affinity over peptide 266 [2]: 4 fold
B7: albumin tag variant peptide 282 (peptide)
peptide: EYEKEYEK
modifications: biphenyl-3-carboxylic acid cap at the N-terminus (based on peptide 266: on a gamma-coupled glutamic acid, through PEG2); Lys 4 side chain acylated with palmitic acid; additional C-terminal Lys carries 5(6)-carboxyfluorescein on its side chain
notes: also called tag variant 282

further factor recovered in HSA affinity by the first aromatic ring [2]: 2 fold
B8: albumin tag variant peptide 266 (peptide)
peptide: EYEKEYEK
modifications: benzoic acid coupled to the amine of a gamma-coupled glutamic acid at the N-terminus (through PEG2); Lys 4 side chain acylated with palmitic acid; additional C-terminal Lys carries 5(6)-carboxyfluorescein on its side chain

fold better activity than peptide 114 [7]: 2 fold
B9: peptide 096 (lead KLK7 inhibitor) (peptide)
peptide: PCLYLARCS
modifications: linker 2-8 via 1,3‑dibromoacetone

binding result [4]: binds
Ki [5]: 23 nM
fold loss in activity compared to the cyclic peptide alone [5]: 10 fold
B10: N-terminal albumin tag conjugate of KLK5 inhibitor 035 (peptide)
peptide 1: {5(6)‑carboxyfluorescein}-EYEK(Palmitoyl)EYE
peptide 2: GCTRQYPC
modifications: bridge II:2-II:8; not fully specified (C-terminus, bridges); also: chain 1 C-terminus joined via PEG2 to N-terminus of chain 2 (one linear molecule)
notes: also called N-terminal conjugate (KLK5)

fold loss in affinity (Kd) for HSA on conjugation [4]: 2.9 fold
B11: KLK7 inhibitor 096-tag (C-terminal albumin tag conjugate of 096) (peptide)
peptide 1: PCLYLARCSGKG
peptide 2: EYEK(Palmitoyl)EYE
modifications: bridge I:2-I:8; not fully specified (some residues, N-terminus, bridges); also: chain 2 (albumin tag) attached via PEG2 to Lys11 side chain of chain 1 (branched)
notes: Branched molecule
